Test results from PMC6102232 (2018).

T1: NCBD2 NCBD (Mus musculus, UniProt P45481)
T1 chain: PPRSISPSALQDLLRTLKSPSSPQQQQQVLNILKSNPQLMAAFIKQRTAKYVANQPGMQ

T2: NCBD1 NCBD (Mus musculus, UniProt P45481)
T2 chain: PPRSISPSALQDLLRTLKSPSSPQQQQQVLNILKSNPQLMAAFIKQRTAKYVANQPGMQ


Key:
[1] = molecular target: ACTR-Avi (Avi-tagged, biotinylated, Cy3B-labelled ACTR) (human); test: FRET or BRET
[2] = molecular target: T1, NCBD2 NCBD
[3] = molecular target: T2, NCBD1 NCBD

Row | Molecule | kon [1] [M⁻¹ s⁻¹] | Kd [2] [nM] | Kd [3] [nM]
1 | NCBD wt (single-cysteine variant labelled with CF680R) (domain or fragment) | 2.9e+08 | – | –
2 | ACTR ACTR (protein) GTQNRPLLRNSLDDLVGPPSNLEGQSDERALLDQLHTLLSNTDATGLEEIDRALGIPELVNQGQALEPKQD | – | 650 | 78
